According to patent US20250327097A1, “ORGANISMS PRODUCING LESS CROTONIC ACID” (Global Bioenergies, priority 2021, published 2025):
Positions count from the first letter of the chain named. Names may count otherwise.

Test system: 3-methylcrotonic acid
Type: biochemical, Yersinia frederiksenii
Parameters: key: “+” representing a low increase in activity; “++++” representing a high increase in activity

B1: I283T-P284D-i284aP-N287P-S322T-Q365I-N388M-E421V-C430N-L432F-L434W-S436N-H461T-dG462-A463T (protein)
chain: MFLKSLREQINLLKRQGDLRIINRPVDSYLEAAAIIRRSTETKAPVPLMTNIKGYPGCSIVGGLAALSSNPEYPLSRVAMSLGLSTTASAQSIVQYLIDGLKKTPYLPVEIDSNSAPCKQNILRGEDASLAHFPIPQVHQHDGNRYVNTWGVFIVESPDGQWCNWSIQRVQYLNDRQMIALVFPSQHISDIWEEWVKIGKPMPYALVQGCEPIVPYIAGLPLLERNVNEAEYIGALYGKGIEVVKCETHDLRVPASSEVVIEGYFAITREGVEGPFGEFAGYTDNEPSLQPILSITAISWQDDPIWPVVAEGKPVDEYHTCTGIGDAAAIQNVLLTANLPVSFVWVPLYSACHLMIVSINRHWRITHPDLTSEQLTKKVGDVIHQTRMSIKLPKIVVLDDDVDPADTESLLWALATRIHPVRKRYFYESNIFPWLNCYSEEERHNRKGKRVIIDALLPENTGTISSFDYAYPDDIKQRVLMHWETDFSHD
Q: B1 was tested. Which “Activity relative to WT” value did it give?
A: The value was “++++”.

B2: I283T-P284D-i284aP-N287P-L289R-S322T-N388M-E421V-C430N-L432F-L434W-S436N-H461T-dG462-A463T (protein)
chain: B1 chain with L289R, I365Q
Q: For B2, which “Activity relative to WT” value is on record?
A: The value was “++++”.

B3: I283T-P284D-i284aP-N287P-S322T-N388M-E421V-C430N-I431M-L432F-L434W-S436N-H461T-dG462-A463T (protein)
chain: B1 chain with I365Q, I431M
Q: With B3 as the molecule, how does the “Activity relative to WT” value read?
A: Its value is “++++”.

B4: I283T-P284D-i284aP-N287P-S322T-Q385T-N388M-E421V-C430N-L432F-L434W-S436N-H461T-dG462-A463T (protein)
chain: B1 chain with I365Q, Q385T
Q: With B4 as the molecule, how does the “Activity relative to WT” value read?
A: Its value is “++++”.

B5: I283T-P284D-i284aP-N287P-S322T-N388M-E421V-C430N-L432F-L434W-S436N-G448V-H461T-dG462-A463T (protein)
chain: B1 chain with I365Q, G448V
Q: Which “Activity relative to WT” value does the source give for B5 here?
A: Its value is “++++”.

B6: I283T-P284D-i284aP-N287P-S322T-Q385G-N388M-E421V-C430N-L432F-L434W-S436N-H461T-dG462-A463T (protein)
chain: B1 chain with I365Q, Q385G
Q: For B6, which “Activity relative to WT” value is on record?
A: Its value is “++++”.

B7: I283T-P284D-i284aP-N287P-S322T-N388M-E421V-C430N-L432F-L434W-S436N-G448C-H461T-dG462-A463T (protein)
chain: B1 chain with I365Q, G448C
Q: For B7, which “Activity relative to WT” value is on record?
A: The value was “++++”.

B8: I283T-P284D-i284aP-N287P-S322T-N388M-E421V-C430N-L432F-L434W-S436N-H461T-dG462-A463T-Y469A (protein)
chain: B1 chain with I365Q, Y469A
Q: How did the “Activity relative to WT” value turn out when B8 was run?
A: The value was “++++”.

B9: I283T-P284D-i284aP-N287P-S322T-N388M-E421V-C430N-L432F-L434W-S436N-H461T-dG462-A463T-Y469H (protein)
chain: B1 chain with I365Q, Y469H
Q: How did the “Activity relative to WT” value turn out when B9 was run?
A: Its value is “++++”.

B10: I283T-P284D-i284aP-N287P-S322T-H384L-N388M-E421V-C430N-L432F-L434W-S436N-H461T-dG462-A463T (protein)
chain: B1 chain with I365Q, H384L
Q: With B10 as the molecule, how does the “Activity relative to WT” value read?
A: The value was “++++”.

B11: I283T-P284D-i284aP-E286A-N287P-S322T-N388M-E421V-C430N-L432F-L434W-S436N-H461T-dG462-A463T (protein)
chain: B1 chain with E286A, I365Q
Q: B11 was tested. Which “Activity relative to WT” value did it give?
A: Its value is “++++”.

B12: I283T-P284D-i284aP-N287P-S322T-N388M-E421V-C430N-L432F-L434W-S436N-H461T-dG462-A463T-D468L (protein)
chain: B1 chain with I365Q, D468L
Q: How did the “Activity relative to WT” value turn out when B12 was run?
A: Its value is “++++”.

B13: I283T-P284D-i284aP-E286S-N287P-S322T-N388M-E421V-C430N-L432F-L434W-S436N-H461T-dG462-A463T (protein)
chain: B1 chain with E286S, I365Q
Q: How did the “Activity relative to WT” value turn out when B13 was run?
A: Its value is “++++”.

B14: I283T-P284D-i284aP-N287P-S322T-Q385S-N388M-E421V-C430N-L432F-L434W-S436N-H461T-dG462-A463T (protein)
chain: B1 chain with I365Q, Q385S
Q: B14 was tested. Which “Activity relative to WT” value did it give?
A: The value was “++++”.

B15: I283T-P284D-i284aP-N287P-S322T-N388M-E421V-C430N-L432F-L434W-S436N-C437G-H461T-dG462-A463T (protein)
chain: B1 chain with I365Q, C437G
Q: With B15 as the molecule, how does the “Activity relative to WT” value read?
A: Its value is “++++”.

B16: I283T-P284D-i284aP-N287P-S322T-N388M-E421V-C430N-L432F-L434W-S436N-G448E-H461T-dG462-A463T (protein)
chain: B1 chain with I365Q, G448E
Q: B16 was tested. Which “Activity relative to WT” value did it give?
A: Its value is “++++”.

B17: I283T-P284D-i284aP-N287P-S322T-N388M-E421V-C430N-L432F-L434W-S436N-C437F-H461T-dG462-A463T (protein)
chain: B1 chain with I365Q, C437F
Q: For B17, which “Activity relative to WT” value is on record?
A: Its value is “++++”.

B18: I283T-P284D-i284aP-N287P-S322T-Q385L-N388M-E421V-C430N-L432F-L434W-S436N-H461T-dG462-A463T (protein)
chain: B1 chain with I365Q, Q385L
Q: B18 was tested. Which “Activity relative to WT” value did it give?
A: Its value is “++++”.

B19: I283T-P284D-i284aP-N287P-S322T-H384G-N388M-E421V-C430N-L432F-L434W-S436N-H461T-dG462-A463T (protein)
chain: B1 chain with I365Q, H384G
Q: For B19, which “Activity relative to WT” value is on record?
A: Its value is “++++”.

B20: H141C-I283T-N285P-N287T-Q290E-S322T-N388M-S389H-K394R-C430A-i430aG-L432F-L434W-S436N-dG462 (protein)
chain: MFLKSLREQINLLKRQGDLRIINRPVDSYLEAAAIIRRSTETKAPVPLMTNIKGYPGCSIVGGLAALSSNPEYPLSRVAMSLGLSTTASAQSIVQYLIDGLKKTPYLPVEIDSNSAPCKQNILRGEDASLAHFPIPQVHQCDGNRYVNTWGVFIVESPDGQWCNWSIQRVQYLNDRQMIALVFPSQHISDIWEEWVKIGKPMPYALVQGCEPIVPYIAGLPLLERNVNEAEYIGALYGKGIEVVKCETHDLRVPASSEVVIEGYFAITREGVEGPFGEFAGYTPPETSLEPILSITAISWQDDPIWPVVAEGKPVDEYHTCTGIGDAAAIQNVLLTANLPVSFVWVPLYSACHLMIVSINRHWRQTHPDLTSEQLTKKVGDVIHQTRMHIKLPRIVVLDDDVDPADTESLLWALATRIHPERKRYFYESAIFPWLNCYSEEERHNRKGKRVIIDALLPENHGAISSFDYAYPDDIKQRVLMHWETDFSHD
Q: Which “Activity relative to WT” value does the source give for B20 here?
A: The value was “++++”.

B21: H141C-I283T-N285P-N287T-Q290E-S322T-I330V-N388M-S389H-K394R-C430A-i430aG-L432F-L434W-S436N-dG462 (protein)
chain: B20 chain with I330V
Q: Which “Activity relative to WT” value does the source give for B21 here?
A: Its value is “++++”.

B22: E224P-I283T-N285P-N287T-Q290E-S322T-N388M-S389H-K394R-C430A-i430aG-L432F-L434W-S436N-dG462 (protein)
chain: B20 chain with C141H, E224P
Q: With B22 as the molecule, how does the “Activity relative to WT” value read?
A: Its value is “++++”.

B23: E224P-I283T-N285P-N287T-Q290E-S322T-N388M-K394R-C430A-i430aG-L432F-L434W-S436N-dG462 (protein)
chain: B20 chain with C141H, E224P, H389S
Q: B23 was tested. Which “Activity relative to WT” value did it give?
A: The value was “++++”.

B24: E224A-I283T-N285P-N287T-Q290E-S322T-N388M-S389H-K394R-C430A-i430aG-L432F-L434W-S436N-dG462 (protein)
chain: B20 chain with C141H, E224A
Q: Which “Activity relative to WT” value does the source give for B24 here?
A: Its value is “++++”.

B25: L222V-E224P-I283T-N285P-N287T-Q290E-S322T-N388M-K394R-C430A-i430aG-L432F-L434W-S436N-dG462 (protein)
chain: B20 chain with C141H, L222V, E224P, H389S
Q: Which “Activity relative to WT” value does the source give for B25 here?
A: The value was “++++”.

B26: I283T-N285P-N287T-Q290E-S322T-N388M-S389H-K394R-C430A-i430aG-L432F-L434W-S436N-I453L-dG462 (protein)
chain: B20 chain with C141H, I453L
Q: B26 was tested. Which “Activity relative to WT” value did it give?
A: The value was “++++”.

B27: I283T-N285P-N287T-Q290E-S322T-I330V-N388M-S389H-K394R-C430A-i430aG-L432F-L434W-S436N-dG462 (protein)
chain: B20 chain with C141H, I330V
Q: For B27, which “Activity relative to WT” value is on record?
A: The value was “++++”.

B28: I283T-N285P-N287T-Q290E-S322T-I330V-N388M-S389H-K394R-C430A-i430aG-L432F-L434W-S436N-V451S-dG462 (protein)
chain: B20 chain with C141H, I330V, V451S
Q: With B28 as the molecule, how does the “Activity relative to WT” value read?
A: Its value is “++++”.
